Results published in article doi:10.1101/808618v2.

Columns and labels:
Assay in all cases: purified protein
[1] = substrate: NC(=O)CC[C@H](N)C(=O)O; conditions: pH 8.5, 25 °C, 20 mM MgCl2, XMP […], ATP 2 mM fixed
[2] = substrate: O=c1[nH]c(=O)c2ncn([C@@H]3O[C@H](COP(=O)(O)O)[C@@H](O)[C@H]3O)c2[nH]1; conditions: pH 8.5, 25 °C, 20 mM MgCl2, ATP 2 mM, Gln 5 mM fixed
[3] = substrate: Nc1ncnc2c1ncn2[C@@H]1O[C@H](COP(=O)(O)OP(=O)(O)OP(=O)(O)O)[C@@H](O)[C@H]1O; conditions: pH 8.5, 25 °C, 20 mM MgCl2, XMP […], Gln 5 mM fixed

B1: PfGMPS (Plasmodium falciparum 3D7) (protein)
chain: MEGEEYDKILVLNFGSQYFHLIVKRLNNIKIFSETKDYGVELKDIKDMNIKGVILSGGPYSVTEAGSPHLKKEVFEYFLEKKIPIFGICYGMQEIAVQMNGEVKKSKTSEYGCTDVNILRNDNINNITYCRNFGDSSSAMDLYSNYKLMNETCCLFENIKSDITTVWMNHNDEVTKIPENFYLVSSSENCLICSIYNKEYNIYGVQYHPEVYESLDGELMFYNFAYNICKCKKQFDPIRYHELELKNIEKYKHDHYVIAAMSGGIDSTVAAAYTHKIFKERFFGIFIDNGLLRKNEAENVYTFLKSTFPDMNITKIDASENFLSNLQGVTDPEQKRKIIGKLFIEEFEKAVNNIDIDINKTFLLQGTLYPDIIESKCSKNLSDTIKTHHNVGGLPKNLKFKLFEPFKYLFKDDVKTLSRELNLPEEITNRHPFPGPGLAIRVIGEINKHKLNILREVDDIFINDLKQYGLYNQISQAFAVLLSSKSVGVRGDARSYDYVCVLRAVKTSSFMTANWYQIPYDILDKITTRILSEVKGVNRILYDVSSKPPATIEFE
[1]
  Km: 0.33 ± 0.02 mM
  kcat: 0.766 ± 0.005 s⁻¹
[2]
  Km: 7.1 ± 1 µM
  kcat: 0.741 ± 0.058 s⁻¹
[3]
  Km: 119 ± 2 µM
  kcat: 0.893 ± 0.039 s⁻¹
